Laboratory results from patent US20210380653A1.

Target: DR5 receptor (TRAIL-R2, TNFRSF10B) (human) (UniProt O14763)
Assay: cell-based or functional assay

Chain of DR5 receptor (TRAIL-R2, TNFRSF10B) (human) (O14763 56-440): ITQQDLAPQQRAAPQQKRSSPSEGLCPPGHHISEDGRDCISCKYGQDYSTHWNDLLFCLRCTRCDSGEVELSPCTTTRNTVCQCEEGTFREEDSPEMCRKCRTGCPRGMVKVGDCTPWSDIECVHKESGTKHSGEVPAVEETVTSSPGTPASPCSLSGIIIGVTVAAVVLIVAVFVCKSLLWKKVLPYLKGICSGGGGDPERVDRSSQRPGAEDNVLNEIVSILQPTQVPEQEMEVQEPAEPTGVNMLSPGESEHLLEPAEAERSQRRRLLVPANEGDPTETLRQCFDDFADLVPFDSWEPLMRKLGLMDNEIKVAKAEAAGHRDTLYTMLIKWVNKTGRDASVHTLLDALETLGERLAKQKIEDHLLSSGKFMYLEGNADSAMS

For “TLY012 (PEGylated miLZ-TRAIL; PEGylated form of recombinant human TRAIL fused to a modified isoleucine zipper at the N-terminus) (ligand)”, the IC50, nM (cell viability / cytotoxicity, COLO-205 cells, CellTiter-Glo) was 0.0155 nM.
